The text below walks through data of the RNAGym collection of RNA variant scans (doi:10.7554/elife.80360).

B1: HDV Ribozyme (parent)
chain: GGCCGGCAUGGUCCCAGCCUCCUCGCUGGCGCCGGCUGGGCAACAUUCCGAGGGGACCGUCCCCUCGGUAAUGGCGAAUGGGACCCA

In this series the parent is B1. Description: self-cleavage, relative activity (ratio to wild type); higher = more cleavage; co-transcriptional.
In the case of C36A C64G, the self-cleavage came to 0.0652.

In the case of U47A G50A, the self-cleavage was determined as 0.876.

Regarding C44U G54A, the self-cleavage was determined as 0.872.

In the case of A71G C86G, the self-cleavage was found to be 1.01.

As to C32G C44A, the self-cleavage turned out to be 0.0791.

As for C21A G67U, the self-cleavage is 0.04.

In the case of C3U C61U, the self-cleavage was 0.923.

Turning to C24U A51G, the self-cleavage came out at 0.415.

For the variant A56G U69A, the self-cleavage is 0.906.

As for U9G C49A, the self-cleavage came to 1.11.

Turning to G11C C19G, the self-cleavage is 0.0811.

On to G34U A87U, for which the self-cleavage was 0.141.

Regarding C33U A45G, the self-cleavage is 0.886.

For the variant G11U U72G, the self-cleavage came to 0.145.

Regarding U27G G35A, the self-cleavage was 0.295.

Turning to G25U A70G, the self-cleavage amounted to 0.0875.

For U9A A87C, the self-cleavage was found to be 1.04.

As for C24U C64A, the self-cleavage was found to be 0.848.

G38A G76C: the self-cleavage was 0.0767.

On to A16U G40U, for which the self-cleavage amounted to 0.964.

Consider C61G A87G, for which the self-cleavage stood at 0.994.

In the case of G50C C63G, the self-cleavage was determined as 0.135.

For C84U A87U, the self-cleavage came to 0.946.

Take G10C G29A: the self-cleavage came to 0.032.

For A43G A70C, the self-cleavage is 0.9.

Regarding G25C C61U, the self-cleavage worked out at 0.0354.

For C49G A78U, the self-cleavage was found to be 0.138.

For the variant A16C G73C, the self-cleavage was found to be 0.217.

For the variant U47C C62A, the self-cleavage worked out at 1.06.

As to C3A G10A, the self-cleavage amounted to 0.335.

C26A G40C: the self-cleavage came to 0.601.

With G10C C24G, the self-cleavage worked out at 0.

As to G59A U60G, the self-cleavage worked out at 0.956.

For U20C A87C, the self-cleavage stood at 0.254.

With C36A G55A, the self-cleavage came out at 0.188.

With G31C G82A, the self-cleavage came to 0.0563.

In the case of A42U G54A, the self-cleavage stood at 0.441.

In the case of G28U G74U, the self-cleavage was 0.0639.

C13G G67C: the self-cleavage was found to be 0.0665.

For the variant U27G U65C, the self-cleavage amounted to 0.965.

Take A56C C62G: the self-cleavage was determined as 0.458.

In the case of C57G A83C, the self-cleavage is 0.554.

C32A G59U: the self-cleavage was found to be 0.095.

For the variant C32U C41U, the self-cleavage amounted to 0.629.

Take C18U U23G: the self-cleavage was 0.383.

With C19A C32U, the self-cleavage came out at 0.0841.

Consider G35C G76C, for which the self-cleavage is 0.305.

On to A43G G67A, for which the self-cleavage came to 0.804.

On to C58U G76A, for which the self-cleavage came to 1.08.

As to U27G G28C, the self-cleavage stood at 0.554.

Regarding G59C C86A, the self-cleavage was found to be 0.914.

As for G55U C62G, the self-cleavage came to 0.793.

With G38C C63U, the self-cleavage was 0.194.

Regarding U9C A45G, the self-cleavage was 0.95.

As for C3U G82C, the self-cleavage stood at 0.0779.

A8U U9C: the self-cleavage amounted to 0.906.

Regarding G54U C63A, the self-cleavage worked out at 0.901.

For the variant C21G A77C, the self-cleavage came out at 0.0536.

For C44A C75G, the self-cleavage worked out at 0.369.

G10C C66G: the self-cleavage is 0.646.

For the variant C13U U69G, the self-cleavage is 0.7.

With G67U A70U, the self-cleavage was 0.812.

Turning to C7G C58G, the self-cleavage was 0.293.

Turning to G31C C64A, the self-cleavage was determined as 0.148.

Take G31C G59A: the self-cleavage worked out at 0.483.

Regarding C19U C33U, the self-cleavage amounted to 0.234.

With C41A C49A, the self-cleavage came to 0.519.

In the case of G31A C84A, the self-cleavage was 0.326.

As to C22G G76U, the self-cleavage was 0.089.

As for C15A A78G, the self-cleavage came to 0.447.

For the variant C22G C64A, the self-cleavage amounted to 0.125.

Take C48U G81C: the self-cleavage is 0.381.

In the case of G17C U72G, the self-cleavage turned out to be 0.161.

C19A C85U: the self-cleavage came to 0.166.

As to G35U A71C, the self-cleavage is 0.237.

Take G25A G54A: the self-cleavage is 0.242.

Regarding G35A G73C, the self-cleavage was 0.138.

In the case of U46C U60A, the self-cleavage came out at 0.674.

On to G10C G31U, for which the self-cleavage worked out at 0.219.

On to G11A G74U, for which the self-cleavage was found to be 0.123.

As to C4U G67A, the self-cleavage is 0.554.

For G40U A56C, the self-cleavage was determined as 0.639.

For the variant U37A G53U, the self-cleavage is 0.302.

U9C U47G: the self-cleavage is 1.42.

Consider G40A G53C, for which the self-cleavage stood at 1.01.

Regarding C13U C63U, the self-cleavage amounted to 0.696.

With G1U G11A, the self-cleavage stood at 0.364.

Consider G17U A77C, for which the self-cleavage was 0.166.

With G35A A56U, the self-cleavage amounted to 0.72.

Turning to G68U G74U, the self-cleavage worked out at 0.604.

On to C22A C64A, for which the self-cleavage amounted to 0.107.

Consider G34U C75U, for which the self-cleavage was 0.109.

U47A C58U: the self-cleavage was determined as 1.03.

Turning to C61U A70G, the self-cleavage stood at 1.01.

For A42C C61U, the self-cleavage amounted to 0.199.

As to U20G C84A, the self-cleavage is 0.222.

As to G39U, the self-cleavage amounted to 0.727.

For the variant C48A G59C, the self-cleavage came out at 1.15.

For G40C A87C, the self-cleavage was 0.245.

Take C13A C57G: the self-cleavage stood at 0.19.

C18A G74U: the self-cleavage was found to be 0.0528.

On to U12A A51U, for which the self-cleavage is 0.277.

As to U46G A51C, the self-cleavage was determined as 0.755.

Take U23G C61A: the self-cleavage amounted to 0.743.

In the case of G53C A70U, the self-cleavage worked out at 0.988.

As to G11A C33A, the self-cleavage was found to be 0.151.

As to C26U G80C, the self-cleavage was 0.554.

On to G31U A87G, for which the self-cleavage worked out at 0.323.

On to C62A C75A, for which the self-cleavage turned out to be 0.0314.

For the variant U9G C18U, the self-cleavage was 0.504.

U9C C66G: the self-cleavage is 1.04.

As to G11C C24U, the self-cleavage came to 0.219.

Take C61A: the self-cleavage was determined as 1.02.

Regarding U20C G25C, the self-cleavage was 0.227.

For the variant C49U G53C, the self-cleavage came out at 1.05.

As to G25A G35C, the self-cleavage is 0.0627.

On to C19U C48U, for which the self-cleavage is 0.0978.

Turning to G40U G80U, the self-cleavage came to 0.171.

As for G53U C57U, the self-cleavage was 1.01.

On to G25C G39C, for which the self-cleavage was determined as 0.

Turning to U37C U60A, the self-cleavage was 1.27.

For the variant C22U G35U, the self-cleavage is 0.0511.

With G34C U79G, the self-cleavage is 0.0615.

Regarding U20A U69G, the self-cleavage was found to be 0.0519.

For the variant U23C A78U, the self-cleavage was 0.151.

Turning to G55C A87G, the self-cleavage came out at 0.953.

For the variant U23G U72G, the self-cleavage came out at 0.214.

For A77C G81U, the self-cleavage turned out to be 0.116.

Consider G29C C63A, for which the self-cleavage worked out at 0.117.

For the variant G28U U65G, the self-cleavage was found to be 0.128.

C18G U79G: the self-cleavage is 0.133.

Turning to U27C A45C, the self-cleavage amounted to 0.237.

For the variant G2C A87C, the self-cleavage was determined as 0.0523.

On to G1A C75U, for which the self-cleavage came out at 0.0639.

As for C41G G55A, the self-cleavage was found to be 0.911.

For C15G C64A, the self-cleavage stood at 0.538.

In the case of C44A C64G, the self-cleavage was 0.814.

In the case of G1U A45U, the self-cleavage was 0.441.

As to G31U G68A, the self-cleavage came to 0.38.

Regarding U12C G53U, the self-cleavage was 0.427.

Regarding C13A C66A, the self-cleavage turned out to be 0.125.

With G10A G38A, the self-cleavage turned out to be 0.0607.

Take C7G U20C: the self-cleavage amounted to 0.

Regarding C24A A87C, the self-cleavage came out at 0.645.

G73A G80C: the self-cleavage came to 0.165.

Regarding C3G U37A, the self-cleavage was 0.

As for G74C C85U, the self-cleavage was 0.128.

For U12A A45U, the self-cleavage came out at 0.

With G38U C86U, the self-cleavage amounted to 0.241.

G39C C57A: the self-cleavage amounted to 0.141.

Take C18U G25C: the self-cleavage was found to be 0.201.

Turning to G31A A70C, the self-cleavage was determined as 0.407.

On to C7A A71U, for which the self-cleavage stood at 0.462.

In the case of C3U U27G, the self-cleavage is 0.723.

For G35U, the self-cleavage was found to be 0.454.

In the case of C57U U72G, the self-cleavage amounted to 0.587.

With G29A A70C, the self-cleavage came out at 0.0978.

Consider C48A C57U, for which the self-cleavage came to 0.76.

With C13G U79A, the self-cleavage worked out at 0.

Consider C14U G76U, for which the self-cleavage came out at 1.14.

For G35C C64U, the self-cleavage came to 0.348.

With G35U U79C, the self-cleavage was 0.0992.

C21G G34A: the self-cleavage was 0.0386.

In the case of C36G A56G, the self-cleavage was 0.0594.

As for U37C C84G, the self-cleavage was determined as 0.587.

On to C4U C18G, for which the self-cleavage is 0.095.

In the case of U69C A70G, the self-cleavage amounted to 0.889.
